Measured values as given in the supplement of paper PMC10567573.
± gives the standard deviation.

Assay: protein stability index of a GFP-peptide fusion (GPS, HEK-293T) (PSI 1-6); higher = more stable
[1] = treatment: DMSO, c terminus: a fixed tail appended
[2] = treatment: MLN4924 1 uM, 8 h, c terminus: a fixed tail appended
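Note: 24-mer peptide tiles fused after GFP, lentivirally expressed, FACS-sorted into six equal bins by GFP/DsRed ratio, decoded by Illumina sequencing, PSI is the read-weighted mean bin number.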

| Sequence | protein stability index [1] | protein stability index [2] | protein stability index (treatment: DMSO, c terminus: native) | protein stability index (treatment: MLN4924 1 uM, 8 h, c terminus: native) |
| --- | --- | --- | --- | --- |
| GWWKRLFTLKEEKPKMYFMTMIVS [ARL6IP1] | 2.95 ± 0.66 | 2.04 ± 0.57 |  |  |
| GYNLTSISESMAACTRSLLGDPPP [HDAC6] | 3.52 ± 0.38 | 3.4 ± 0.2 |  |  |
| HEGEDQFLSLEASTETLVHVSDED [DLC1] | 5.61 ± 0.17 | 5.58 ± 0.32 |  |  |
| HEKERPEHKSLESLADGGSASPIK [FANCE] | 5.49 ± 0.21 | 5.31 ± 0.25 |  |  |
| HEQALFIYVHILKDTRMAEEYCHK [VPS39] | 2.57 ± 0.62 | 2.4 ± 0.59 |  |  |
| HFDVLPTEFTLGDDKHYGGFTNKQ [PTPRD] | 4.48 ± 0.16 | 4.47 ± 0.25 |  |  |
| HHPENGEEAVTVLEDLESELDDPG [ZNF24] | 5.49 ± 0.22 | 5.65 ± 0.16 |  |  |
| HHVPGGGNVKIDSQKLNFREHAKA [MAP2] | 4.3 ± 0.43 | 4.4 ± 0.27 |  |  |
| HKACEVAPLQSVFQGQKTELNNCI [TRIM63] | 3.78 ± 0.12 | 3.67 ± 0.41 |  |  |
| HKHVHFSSSFTSIASEWFLIANRS [SLC22A15] | 2.43 ± 0.57 | 2.04 ± 0.33 |  |  |
| HLDIWKSAAWMKERTSPGAIHYCA [SPDEF] | 2.21 ± 0.39 | 2.4 ± 0.32 |  |  |
| HLDRTSVSSLSEVEEVDMAEEFEQ [ELOA2] | 5.66 ± 0.34 | 5.48 ± 0.4 |  |  |
| HLGCMHYTVRAPVGVAGLISPWNL [ALDH8A1] | 2.48 ± 0.97 | 2.31 ± 0.64 |  |  |
| HLLSWFSPTIIFDNWIPLLWCANI [DHCR7] | 2.98 ± 0.18 | 3.08 ± 0.21 |  |  |
| HLTRHQRTHTGEKPYKCTLCGENF [ZNF263] | 3.36 ± 0.53 | 3.45 ± 0.51 |  |  |
| HMESRMVTETEETQEKKAESKEPI [SDE2] | 5.48 ± 0.17 | 5.46 ± 0.47 |  |  |
| HNDRVQALSYAQHTRQLISCGGDG [WDFY2] | 2.77 ± 0.28 | 2.53 ± 0.17 |  |  |
| HRAVASRSEEAVQVLIKHSADVNA [ANKRD44] | 4.5 ± 0.28 | 4.47 ± 0.31 |  |  |
| HSAVARISRAQYNALTLTFQRAMH [STX11] | 2.08 ± 0.31 | 2.14 ± 0.19 |  |  |
| HTFNAHAATDITGFGILGHSQNLA [SEPHS2] | 3 ± 0.35 | 3.04 ± 0.24 |  |  |
| HTGEKPYKCLECGKAFSQNSGLIN [ZNF24] | 2.68 ± 0.19 | 2.88 ± 0.21 |  |  |
| HTRSPYSTFYPPYHSPELTTPPGH [NEUROD6] | 3.23 ± 0.14 | 3.18 ± 0.15 |  |  |

| Sequence | protein stability index [1] | protein stability index [2] | protein stability index (treatment: DMSO, c terminus: native) | protein stability index (treatment: MLN4924 1 uM, 8 h, c terminus: native) |
| --- | --- | --- | --- | --- |
| HWNSTIKRKVDTGGFLSESKDCKP [MYBL2] | 3.93 ± 0.57 | 4.12 ± 0.32 |  |  |
| HWPQGPTGPPGPPGPMGPPGPPGP [EMID1] | 4.66 ± 0.22 | 4.73 ± 0.45 |  |  |
| HYMEENLMDGGDLPSVTDIRRPRL [PLK2] | 4.15 ± 0.16 | 4.22 ± 0.13 |  |  |
| IAENGVSERDSEAAKQNHVTADDF [EHMT1] | 5.39 ± 0.15 | 5.42 ± 0.11 |  |  |
| IEEYMVHVEEHFQLLARRMQVDKK [FUT8] | 3.06 ± 0.35 | 3.2 ± 0.27 |  |  |
| IELAPLSMPRINHGVLSAEGFLFV [GAN] | 3.34 ± 1.1 | 2.81 ± 0.61 |  |  |
| IETEDQIDKKPVSEKTDESDTIPY [MIA2] | 5.53 ± 0.3 | 5.3 ± 0.36 |  |  |
| IEVKTKGGSKYLIYRRYRQFHALQ [NCF4] | 2.22 ± 0.35 | 2.2 ± 0.33 |  |  |
| IFMLCTLVLAIPLLLILVSYVHIL [OR10K2] | 3.35 ± 0.26 | 3.18 ± 0.36 |  |  |
| IFYGSGIFNYMRLGSTKLSDKDKA [OR3A1] | 1.93 ± 0.23 | 2.12 ± 0.19 |  |  |
| IGPNVLMVHKRSHTGERPFQCNQC [IKZF1] | 2.93 ± 0.26 | 3.17 ± 0.43 |  |  |
| IIEYRGKFMLREQFEANGYFFKRP [KMT2E] | 2.31 ± 0.63 | 2.37 ± 0.36 |  |  |
| IIKQLKDVFERDWYSPYAKTLQPT [PLD5] | 1.98 ± 0.59 | 1.97 ± 0.39 |  |  |
| IIQYRLPMKKNNNLYSWDDFMELG [ACSBG2] | 2.12 ± 0.32 | 1.98 ± 0.25 |  |  |
| IKEIDEHAPGVPRILVGNRLHLAF [RAB40C] | 2.21 ± 0.21 | 2.06 ± 0.28 |  |  |
| IKRTIRVLDVNNQSFREQEEPSNK [NET1] | 3.68 ± 0.42 | 3.93 ± 0.26 |  |  |
| ILFSLPPALDWDSVHVPGPHAMTI [PTPN9] | 2.66 ± 0.42 | 2.35 ± 0.62 |  |  |
| ILKIRHGWEDVTKINKTEICSQL [STEAP1] |  |  | 2.42 ± 0.57 | 2.2 ± 0.21 |
| ILLDGSEYTCDVEKRSRGQVLFDK [EPB41L3] | 2.86 ± 0.55 | 2.94 ± 0.61 |  |  |
| ILTLTMISLFFLIIYMGSFMLMLL [CDS1] | 2.4 ± 0.65 | 2.35 ± 0.39 |  |  |
| IPKVELQISIYGVKILEPKTKEVQ [GULP1] | 2.46 ± 0.51 | 1.98 ± 0.23 |  |  |
| IQDNGTGIRKEDLDIVCERFTTSK [MLH1] | 4.17 ± 0.2 | 4.46 ± 0.33 |  |  |

| Sequence | protein stability index [1] | protein stability index [2] | protein stability index (treatment: DMSO, c terminus: native) | protein stability index (treatment: MLN4924 1 uM, 8 h, c terminus: native) |
| --- | --- | --- | --- | --- |
| IQGADTIRCVYILDPWFAGSSNVG [CRY1] | 2.81 ± 0.56 | 2.6 ± 0.54 |  |  |
| IRKEMKLLEQAGSLKGSLSVEEQL [CRYL1] | 4.54 ± 0.53 | 4.372 ± 0.012 |  |  |
| IRRAYPDANLLNDRVLRAMLKAEE [CCND1] | 2.96 ± 0.24 | 3.52 ± 0.47 |  |  |
| ISKKFGDMSYSIRHSISMPAMRNS [TPD52L1] | 2.51 ± 0.41 | 2.65 ± 0.52 |  |  |
| ISPGKNATGMEVGWYRPPFSRVVH [MOG] | 2.45 ± 0.17 | 2.69 ± 0.23 |  |  |
| ISRDRLSSYYKFKLTREVLSLFVQ [ZER1] | 2.11 ± 0.52 | 2.13 ± 0.29 |  |  |
| ISSGLRGCMLIELALRGRLQLEAC [GOLPH3] | 3.22 ± 0.62 | 2.67 ± 0.21 |  |  |
| ISSTSTKRTYWPDLDAKIREALVL [PLD5] | 2.38 ± 0.39 | 2.43 ± 0.49 |  |  |
| ITDLPRIDVSKREPPPVKQELPPY [EFHC1] | 4.37 ± 0.033 | 4.45 ± 0.17 |  |  |
| ITHSTVGSKGEKDLGASSLHVNGE [EHMT1] | 4.9 ± 0.2 | 5.03 ± 0.24 |  |  |
| ITTKIFWGGKAETERGLSRKHIIE [KCNAB2] | 2.65 ± 0.29 | 2.89 ± 0.33 |  |  |
| IVAGGYDERVLENVEHYQELKKMV [ALG2] | 3.14 ± 0.25 | 3.2 ± 0.11 |  |  |
| IWEQRSATVVMMTKLEERSRVKCD [PTPRD] | 3.29 ± 0.27 | 3.26 ± 0.41 |  |  |
| KAFYKRYRLTEHERAHKGEKPYGC [ZNF649] | 3.62 ± 0.93 | 3.16 ± 0.57 |  |  |
| KAHETLHQSLSLASSPKGTIENIL [CDC25A] | 3.55 ± 0.5 | 3.59 ± 0.22 |  |  |
| KAPSKLGLIISGPILQEGMDEEKL [DLC1] | 4.47 ± 0.38 | 4.54 ± 0.36 |  |  |
| KARGKSGPLFNFDVHDDVRLLSDA [FAM50A] | 3.87 ± 0.15 | 3.81 ± 0.3 |  |  |
| KASALNTKIRALQGSLENMSKLLK [CD207] | 2.22 ± 0.33 | 2.26 ± 0.32 |  |  |
| KAYDHQTQELVAIKIIKNKKAFLN [DYRK1B] | 2.37 ± 0.22 | 2.62 ± 0.25 |  |  |
| KCLQLLGNLGSLEKSVTKDAEGLA [INTS4] | 2.82 ± 0.46 | 3.08 ± 0.099 |  |  |
| KCLVTEAQTLLRLSGVQRVESVFF [RSAD1] | 2.53 ± 0.43 | 2.4 ± 0.25 |  |  |
